# Test results reported in the nanobody polyreactivity screen of Harvey et al. (2022).
# Assay: yeast display, Sf9 membrane polyspecificity reagent, FACS + sequencing; frameworks hold sequencing errors
# Procedure, shortened: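 A nanobody's polyreactivity label depends on the gate it was sorted from. Yeast display cells were stained with 10% biotinylated, detergent-solubilized Sf9 membrane reagent for 1 hour at 4 °C, enriched on streptavidin microbeads and sorted by FACS. The low and high (top ~1%) gates were set on anti-HA fluorescence for expression and streptavidin fluorescence for reagent binding.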
row,Sequence,polyreactivity (PSR sort gate)
1,QVQLVESGGGLVQAGGSLRLSCAASGRIFVRYAMGWYRQAPGKERELVAAINWRGSSTYYADSVKGRFTISRDNAKNTVYLQMTSLKPEDTAVYYCNTAQRYRVYRYDYWGQGTQVTVSS,high polyreactivity
2,QVQLVESGGGLVQAGGSLRLSCAASGRIFVSNGMGWYRQAPGKERELVAVIRYSTGSTYYADSVKGRFTFSRDNAKTTVYLQMNCLKPEDTAVYYCAARNPFFEPSEYDYWGQGTQVTVSS,low polyreactivity
3,QVQLVESGGGLVQAGGSLRLSCAASGRIFVTNAMGWYRQAPGKERELVAAITRGGSTNYADSVKGRFTISRDNAKNTVYLQMNSLKPEDTAVYYCAAKRRYYGPWSRIGYDYWGQGTQVTVSS,low polyreactivity
4,QVQLVESGGGLVQAGGSLRLSCAASGRIFVTNAMGWYRQAPGNERELVAGLNRSGDITYYADSVKGRFTISRDNAKNTVYLQMNSLKPEDTAVYYCAVDFYVYRWSPYGDVYRYDYWGQGTQVTVSS,high polyreactivity
5,QVQLVESGGGLVQAGGSLRLSCAASGRIFVVNAMGWYRQAPGKERELVAAISSSSDSTYYADSVKGRFTISRDNAKNTVYLQMNSLKPEDTAVFYCAADYHYDGYWIYDYWGQGTQVTVSS,high polyreactivity
6,QVQLVESGGGLVQAGGSLRLSCAASGRIFVVYAMGGYRQAPGKERDLVASISRGGRTYYADSVKGRFTISRDNAKNTVYLQMNSLKPEDTAVYYCAVVVYLKNRDLFDYWGQGTQVTVSS,low polyreactivity
7,QVQLVESGGGLVQAGGSLRLSCAASGRIFVVYAMGWSRQAPGKERELVAAIRSGGSTNYADSVKGRFTISRDNAKNTVYFQLNSLKPEDTAVYNCAARKWHSAYDYWGQGTQVTVSS,high polyreactivity
8,QVQLVESGGGLVQAGGSLRLSCAASGRIFVVYAMGWYRQAPGKERELVAAITGGGRTNYADSVKGRFTISRDNAKNTVYLQKNSLKPGDSAVYYCAAGTRSDARRYYYWGQGTQVTVSS,low polyreactivity
9,QVQLVESGGGLVQAGGSLRLSCAASGRIFVVYAMGWYRQAPGKERELVAAITGGGRTNYADSVKGRFTISRDNAKNTVYLQMNSLKPEDTAVYYCAAGTRSDARRYYYWGQGTQVTVSS,low polyreactivity
10,QVQLVESGGGLVQAGGSLRLSCAASGRIFVVYAMGWYRQAPGKERELVAAITYGGGSTHYADSVKGRFTISRDNAKNTVYLQMNSLKPVDTAVYYCAADVYLVKYDYWGQGTQVTVSS,low polyreactivity
11,QVQLVESGGGLVQAGGSLRLSCAASGRIFVVYAMGWYRQAPGKERELVAAITYGGGSTHYADSVKGRFTISRDNAMNTVYLQMISLKPEDTAVYYCAADLFYHSYGYEYWGQGTQVTVSS,low polyreactivity
12,QVQLVESGGGLVQAGGSLRLSCAASGRIFVYNAMGWYRQAPGKERELVAAISGGGSTYYADSVKGRFTISRDNAKNTVYLQMNSLKPEDTAVYYCNTVFSGYARGWFQPAYNYWGQGTQVTVSS,high polyreactivity
13,QVQLVESGGGLVQAGGSLRLSCAASGRIFVYNAMGWYRQAPGKERELVAGITASGGSTYYADSGKGRFTISRDNAKNTVYLQMNSLKPEDTAVYYCAATRYKRRYYYWGQGTQVTVSS,high polyreactivity
14,QVQLVESGGGLVQAGGSLRLSCAASGRIFVYNAMGWYRQAPGQERELVAAISRGGSTNYADSVKGRFTISRDNAKNTVYLQMNSLKPEDTAVYYCAADIYQYGYDYWGQGTQVTVSS,low polyreactivity
15,QVQLVESGGGLVQAGGSLRLSCAASGRIFVYNVMGWYSQSPGKERELVAAISWGTGSTYADSVKGRFTISRDNAKNTVYLQMNSLKPEDTAVYYCADDSFIPPYDHWGQGTQVTVSS,low polyreactivity
16,QVQLVESGGGLVQAGGSLRLSCAASGRIFVYYAMGWYRPAPGKERELVAAITSGGSTYYADSVKGRFTISRDNANNTVYLQMNSLKPEDTAVYYSAAYRYYYLVYQQHREYGYWGQGSQVTVSS,high polyreactivity

row,Sequence,polyreactivity (PSR sort gate)
1,QVQLVESGGGLVQAGGSLRLSCAASGRIFVYYTMGWYRQAPGKERELVAAITGSGGSTYYADSVKGRFTISRDNAKNTVYLQMNSLKPEDTAVYYCAARYASTGGGYKYYYWGQGTQVTVSS,high polyreactivity
2,QVQLVESGGGLVQAGGSLRLSCAASGRIFVYYVMGWYRQAPGKERELVAAITYSGGSTYYADSVKGRFTISRDNAKNTVYLQMNRLKTEDTAVYYCNKVDAFGIVRLYYWGQGTQVTVSS,low polyreactivity
3,QVQLVESGGGLVQAGGSLRLSCAASGRIFWANAMGWYRQAPGKERELVAAISRRGGSTYYADSVKGRFTISRDNAKNTVSLQMNSLKPEDTAVYYCNAVSPYTSDDYDYWGQGTQVTVSS,high polyreactivity
4,QVQLVESGGGLVQAGGSLRLSCAASGRIFWDIDMGWYRQAPGKEWELVAAISRRGGSTSYADSVKGRFTISRDNAKTTVYLQINSLKPEDTAVYYCNVRTRWTRVRRYDYWGQGTQVTVSS,high polyreactivity
5,QVQLVESGGGLVQAGGSLRLSCAASGRIFWDNAMGWYRQAPGKERELVAAISDSVVITYYADSVKGRFTISRDNAKNTVYLQMNSLKPEDTAVYYCAADKRGSVYLSSFWMDYWGQGTQVTVSS,low polyreactivity
6,QVQLVESGGGLVQAGGSLRLSCAASGRIFWHYAMGWYRQAPGKERELVAAIDYSGGRTRYADSVKGRFTISRDNAKNTVYLQMNSLKPEDTAVYYCAARRSSWGSFTGYYYWGQGTQVTVSS,high polyreactivity
7,QVQLVESGGGLVQAGGSLRLSCAASGRIFWINAMGWYRQAPGKERELVATISSGSTSYADSVKGRFTISRDNAKNTVYLHLNSLKPEDTAVYYCAVSLRYTRSGAYYYWGQGTQVTVSS,low polyreactivity
8,QVQLVESGGGLVQAGGSLRLSCAASGRIFWLYAMGWYRQAPGKERELVAVISWSGGTTYYADSVKGRFTISRDNAKNTVYLQMNSLKPEYTAVYYCAAQVGYYTNYGEFDYLGQGTQVTVSS,low polyreactivity
9,QVQLVESGGGLVQAGGSLRLSCAASGRIFWPYAMGWYRQAPGKERELVAAITSGGSTYYADSVKGRFTLSRDNAKNTVYLQMTSLKPEDTAVYYCAKRSSGVSVPVAYGGIKRYNSWGQGTQVTVSS,low polyreactivity
10,QVQLVESGGGLVQAGGSLRLSCAASGRIFWRNTMGWYRQAPGKERELVAAINYSGGRTYYADSVKGRFTISRDNAKNTVYLQMNSLKPEDTAVYYCAATPPVATNGRYYYWGQGTQVTVSS,low polyreactivity
11,QVQLVESGGGLVQAGGSLRLSCAASGRIFWVNVMGRYIQAPGKERELVPAITRGASTYADSVKGRFTISRDNAKNTVYLQMNSLKPEDTAVYYCAADTKRRSIRYDYWGEGTQVTVSS,high polyreactivity
12,QVQLVESGGGLVQAGGSLRLSCAASGRIFWVNVMGWSRQAPGKERELVAAITRGASTYADSVKGRFTISRDNAKNTVYLQMNSLKPEDTAVYYCAADTKRRSIRYDYWGQGTQVTVSS,high polyreactivity
13,QVQLVESGGGLVQAGGSLRLSCAASGRIFWYYAMGWYRQAPGKERELVATISSRSGSTYYADSVKGRFTISRDNAKNTVNLQMNSLKPEDTAVYYCAAGTPYYLGYRHNYWGQGTQVTVSS,high polyreactivity
14,QVQLVESGGGLVQAGGSLRLSCAASGRIFWYYAMGWYRQAPGKERELVDAISVDGGSTYDADSVKGRFTISRDNAKNTVYLQMNSLKPEDTAIYYCAAQKYPGFTHGYWGQGTQVTVSS,low polyreactivity
15,QVQLVESGGGLVQAGGSLRLSCAASGRIFWYYAVGWYRQAPGKERELVARISSSGGSTYYADSVKGRFTISRDNANNTVYLQMNSLKPEDTAVYYCAKERYSGSSRYPMDYWGQGTQVTVSS,high polyreactivity
16,QVQLVESGGGLVQAGGSLRLSCAASGRIFWYYDMGWYRQAPGKERELVAAITSGGRTYYADSVKGRFTISRDNAKNTVYLQMNRLKPEDTAVYYCAAEGFYTTGSPYSGGLDYWGQGTQVTVSS,low polyreactivity
